In the DeepSol protein solubility set:

assay: soluble on expression in E. coli; label from the status in PepcDB or PDB records

Row | Sequence | soluble on expression in E. coli
1 | GALVPRGSHMADPSLNNPVVIQATRLDASILPRNVFSKSYLLYVIAQGTDVGAIAGKANEAGQGAYDAQVKNDEQDVELADHEARIKQLRIDVDDHESRITANTKAITALNVRVTTAEGEIASLQTNVSALDGRVTTAENNISALQADYVSKTATTSQSLASPLNVTTSYSVGGKKVVGARQTGWTAATGTANKGVFDADLTFAVSDTYTQSEIQAIANALITERRRTKAMEDALRAHGLID | soluble
2 | MGSQFLLSVREFMQTRYYAKKTIEAYLHWITRYIHFHNKKHPSLMGDKEVEEFLTYLAVQGKVATKTQSLALNSLSFLYKEILKTPLSLEIRFQRSQLERKLPVVLTRDEIRRLLEIVDPKHQLPIKLLYGSGLRLMECMRLRVQDIDFDYGAIRIWQGKGGKNRTVTLAKELYPHLKEQIALAKRYYDRDLHQKNYGGVWLPTALKEKYPNAPYEFRWHYLFPSFQLSLDPESDVMRRHHMNETVLQKAVRRSAQEAGIEKTVTCHTLRHSFATHLLEVGADIRTVQEQLGHTDVKTTQIYTHVLDRGASGVLSPLSRL | soluble
3 | GPGSMTEHENTPRLELEAALGYSGNLPGSLVAHPDQQHLLYALGACIVIRDANDAESSEFFYGHNDKISCLTVSVSGRYVASGQVTHPGFQADVCIFDFAERRLIHRMLLHKVKVQALAFSLDEQYLASVGGPDDNTVVLWDVKTGRPLCGAPAHHTETKAIAFFNNNSEKLITGGVGSLLVWTVDLEQRKMNSVDINMGNMRRSVQTISIEKTDKYVYCGTTSGDVICAQLQQANVFKMQGPQKKLSGGILSTILTNTGDVLVGSGAGELQLLSKINLTVQNSATVNGGVTALALMGDNYYVGTKTSNLYFVNGGNFMTRLRLTCHSEAVQDVVFPHGFSSVFATCCDTDIRVWNANSCTELLRIEVSNRTCNCLQFSRDGSLIISGWSDGRIRAFGPQSGKLVFSVADAHKVEQGSRSHKVGGKVGVTSVCADNAGHRIITGGSDGLVRVWAIRGATCTLEASMKEHKAAVNAIVISHDDTECVTASDDGSCIVWDLTRYLRRNIMYRQTYFRALEYYVDDSQLITCGSDKCIVYWDSVDCHAIREVCGSRTAELNSLSLSPDGRFFVTGGNDRIVKVWDYDRGECIAVGLAHSCSITKVRVSPDGKKIVSVGDEGAVMVWNIAELAIEGL | not soluble
4 | AIASSAIERKSLDPSEEPVDEVLQIPPSLLTCGGCQQNIGDRYFLKAIDQYWHEDCLSCDLCGCRLGEVGRRLYYKLGRKLCRRDYLRLFGQDGLCASCDKRIRAYEMTMRVKDKVYHLECFKCAACQKHFCVGDRYLLINSDIVCEQDIYEWTKINGMI | soluble
5 | MGHHHHHHSHMDLSYALETVLNKQFPSSPQDVLGELQFAFVCFLLGNVYEAFEHWKRLLNLLCRSEAAMMKHHTLYINLISILYHQLGEIPADFFVDIVSQDNFLTSTLQVFFSSACSIAVDATLRKKAEKFQAHLTKKFRWDFAAEPEDCAPVVVELPEGIEMG | not soluble
6 | MAKSSSLNVRVVEGRALPAKDVSGSSDPYCLVKVDDEVVARTATVWRSLGPFWGEEYTVHLPLDFHQLAFYVLDEDTVGHDDIIGKISLSREAITADPRGIDSWINLSRVDPDAEVQGEICLSVQMLEDGQGRCLRCHVLQARDLAPRDISGTSDPFARVFWGSQSLETSTIKKTRFPHWDEVLELREMPGAPSPLRVELWDWDMVGKNDFLGMVEFSPKTLQQKPPKGWFRLLPFPRAEEDSGGNLGALRVKVRLIEDRVLPSQCYQPLMELLMESVQGPAEEDTASPLALLEELTLGDCRQDLATKLVKLFLGRGLAGHFLDYLTRREVARTMDPNTLFRSNSLASKSMEQFMKLVGMPYLHEVLKPVISRVFEEKKYMELDPCKMDLGRTRRISFKGALSEEQMRETSLGLLTGYLGPIVDAIVGSVGRCPPAMRLAFKQLHRRVEERFPQAEHQQDVKYLAISGFLFLRFFAPAILTPKLFDLRDQHADPQTSRSLLLLAKAVQSIGNLGQQLGQGKELWMAPLHPFLLQCVSRVRDFLDRLVDVDGDEEAGVPARALFPPSAIVREGYLLKRKEEPAGLATRFAFKKRYVWLSGETLSFSKSPEWQMCHSIPVSHIRAVERVDEGAFQLPHVMQVVTQDGTGALHTTYLQCKNVNELNQWLSALRKASAPNPNKLAACHPGAFRSARWTCCLQAERSAAGCSRTHSAVTLGDWSDPLDPDAEAQTVYRQLLLGRDQLRLKLLEDSNMDTTLEADTGACPEVLARQRAATARLLEVLADLDRAHEEFQQQERGKAALGPLGP | soluble
7 | MQWQELYRQRVCSADEAVVDSLKPGTKVVFGHAAAAPVRFSQAMYRQREKLENITVFHMLYFGDAPHLAPEMRSHVHPTLNFLEGNSRPASRDRRVDFIPCHFHEVPELFRQGFFPLDVAVVQVSTPNEEGYCSFGVSCDYTKAAAECAPVVVAEVNKQMPFIGGENLIHISKLTHIIEVDEPIAEVLPPAISDLELRIGQNCASLIKDGDTLQLGIGGIPDAVLRALEGHKDLGIHTEMFTDGVMRMIRKGIINGKKKTLHPEKVVTSLIFGSKELYDFVNNNPVIECYPGDYINNPDVIGKNDRMVSINSCLEMDLMGQAASESIGYEQFSGSGGQVDFLRGAKRSKGGISIMAFPSTAKKGTESRIVPILKEGACVTTGRNEVDYVVTEYGVARLRGATLRQRAEALTAIAHPDFRPALEEEIRRRFELEHHHHHH | soluble
8 | VTNSTDGRADGRLRVVVLGSTGSIGTQALQVIADNPDRFEVVGLAAGGAHLDTLLRQRAQTGVTNIAVADEHAAQRVGDIPYHGSDAATRLVEQTEADVVLNALVGALGLRPTLAALKTGARLALANKESLVAGGSLVLRAARPGQIVPVDSEHSALAQCLRGGTPDEVAKLVLTASGGPFRGWSAADLEHVTPEQAGAHPTWSMGPMNTLNSASLVNKGLEVIETHLLFGIPYDRIDVVVHPQSIIHSMVTFIDGSTIAQASPPDMKLPISLALGWPRRVSGAAAACDFHTASSWEFEPLDTDVFPAVELARQAGVAGGCMTAVYNAANEEAAAAFLAGRIGFPAIVGIIADVLHAADQWAVEPATVDDVLDAQRWARERAQRAVSGMASVAIASTAKPGAAGRHASTLERS | soluble
9 | MGSDKIHHHHHHVLPHQNLSILIFFFTLDKDHFGNEMKNMYSHIIVGAGILGTSTAYHLAKQGANVLLVDRKEAGRATHVAAGIICPWMTQRRNKAWYRLANNGAHYYDKLIPELEALGETTTGYQKVGTIALHETSKIEKMQMIAENRFPEAPAIQRIERLTADQVRSMFPLIEFVEDALFVSGGARVDGRALRAAMERGAIKHAATILEADASLVVVDGHVQGVQIGQDIHYADQVILTAGVWVNELLEPLQTKLDIRAEKGQILHLDISNDQSKEWPVIMGQRGLYLVSIEDGKLALGSTHEKQLDYNLQPTVKGMYALLTRAIPVAPALEEANINEMRVGLRPYTSNSLPVIGRLANHPNVLIANGLGASGLTIGPYLGQELAKLALDQELEIDLNDYLLQ | not soluble
10 | MQGNTMYKFEVFKDKAGEFRFRFRASNGEIMFSSEGYKAKASVLNAIESIKKNSPGAETVDQTTATV | soluble
11 | ISEFGSMNVILSIDQSTQSTKVFFYDEELNIVHSNNLNHEQKCLKPGWYEHDPIEIMTNLYNLMNEGIKVLKDKYTSVIIKCIGITNQRETVIIWDRITGKPLYNAIVWLDTRVEELVTEFSAKYNNNDIQKKTGTYFNTYFSAFKILWLIQNNPEIKQKIDDGTAVIGNINTWLIFNLTKGNCYTDVTNASRTLLMDINTLQWDEKMCKIFNITNMSVLPEIKSNCSNFGLVKSEHVPDYLNIPITGCIGDQQSACIGQAIFDEGEAKCTYGTGVFLLINTGEKVVYSTCGLITTICYKFNDNDKPKYALEGSIGTAGSGVSWLLKNKLIDDPSEASDIMEKCENTTGVIFVPAFSGLYAPRWRSDARASIYGMTFNTERSHIVRALLEGIAFQLNEIVDSLTSDMGIEMLHVLRCDGGMTKNKPFMQFNSDIINTKIEVSKYKEVTSLGAAVLAGLEVKIWDSLDSVKSLLRRSDAVFHSKMDDKKRKKKTSEWNKAVERTLIQL | soluble
12 | SYSVGQVAGFAGVTVRTLHHYDDIGLLVPSERSHAGHRRYSDADLDRLQQILFYRELGFPLDEVAALLDDPAADPRAHLRRQHELLSARIGKLQKMAAAVEQAMEARS | soluble
13 | MSLNGITKYVEKLTFFNIQSGKQVEFNRDEKVILSNVPFIQQLPELDRGCEVTSLAMMLQYAGITVDKMKLANEIKKVDFMNDGVRGNPNEGFVGNIYTFSESGYGVYHGPLFQLAKKYLPNKAVDLTGKSIEELYKSVKAGQPVVIITNATFAPLDEDEFTTWETNNGDVSITYNEHCVVLIGYDQESVYIRDPLKDSLDVKVPREKFEQAWVQMGSQAISYVKRSKEGHHHHHH | soluble
14 | GMLPDDVNQADVLADVTAAFYRYEKALTGNDVAVLDELFWHDEKTVRYGAGENLYGIEEIRAFRLARPSAGLDRALRNTVITTYGHDMAVASTEFTRTGSTKIGRQMQTWVKMPEGWRIVAAHVSLMSE | soluble
15 | PVMADTIKLRIVETTDIHTNLMDYDYYKDKASDQIGLTRAATLVKQARAEVENSVLVDNGDLIQGSPMGDYMAAKGIKAGEVHPVYKAMNPLGYDVGNIGNHEFNYGLEFLKETINDAAFPYINANVFDAKTGQHLFTPYVIKEHSFKDTDGEAHTIKVGYIGFVPPQIMVWDKKNLEGKVTAADIKQTAEKLIPEMKAKGADVIVAIPHSGISTDEYQAGAENSVYYLTQVKGIDAIAFGHSHAVFPGKDFANVPGADIDKGTINGVTAVMPGRWGSHVGVMDLTLEKQQGRWAVTSGQSEARPIFDKANKKALVEADATMVQALQHDHQGTRDFVNQ | not soluble
16 | MNVKPLQAKDVAEKVLFGELFILDVRNEADYEDWKIEGKQVSSINKPYFDLLDGVDHIVSELPKDKDVLVVCAKEGSSIFVAEQLTEAGLQNIYYLAGGMKAWSEYVKPIKVGNLKDGGSMYQFNRLGKGCLSYMVISNGEAAVIDAVRTAEAYEEFAKEHGVTIKNVMDTHLHADHISGGRKLAEKVGGTYWLPPKDAEEVVFSYEPLVEGSVITVGGTKIEIDALYSPGHTIGSTSFIVDDSYLLSGDILFVDSIGRPDLAGKAEDWVSDLRNTLYSRYKELSQNLVVLPAHYSKVSEMNESGIVSAKLKDLFANNAGLNIEDEGEFRKVVTENLPPQPNAYEEIRQTNMGKIHPSVDKEREMEIGPNRCAVHE | not soluble
17 | MTNDNSGIWVLGYGSLIYKPPSHYTHRIPAIIHGFARRFWQSSTDHRGTPANPGRVATLIPYEDIIRQTAFLKNVNLYSESAPIQDPDDLVTIGVVYYIPPEHAQEVREYLNVREQNGYTLHEVEVHLETNREHEAELGEALEQLPRHNKSGKRVLLTSVYIGTIDNEAFVGPETVDETAKVIAVSHGPSGSNYEYLAKLEQALAQMPIMKERGRITDHYLTALLETVNKYR | soluble
18 | MGSDKIHHHHHHMEDLYLECPGCDEVTLHTVLKEKESKKHLKITVKCQECGTVHDIEKNFKLKDIKIVISRYDESEQSVLQIATDEILKVEDVILAFDESVEITALETEDSRRVSSSAAQDLKMIWARSIDVPKKVGISINSRESTYSFNILVPQDYVFEEKKIYRAGRDFFRIKQIKTEKGNFSRELARKIKRIYGEPVKPLRDYTDLTDYML | not soluble
19 | MLNLRGVEIRKGALDGPAQARLIEALRPVLKAAPLFTPTMPNGKPLSVRMTSAGSLGWVTDKGGYRYQPTHPKGMAWPAIPPEVLDLWHGVTGQDRAPDCCLINYYGEGARMGLHQDRDEADLTWPVVSLSLGDDALFRIGNTSRGGKTESVWLNSGDVVVMGGPARLIYHGIDRIRFGSSRLLPKGGRLNLTLRVAGLEHHHHHH | not soluble
20 | MRKIHFTDKYLLSPYHPVTVLVAGAGGTGSQVITSLARMSVALQALGHPGLHLTAFDPDTVTEANIGRQLFSETELGLNKATALVTRVNRFFGYAWEARECRYPIITKEGDKSVPLANIIITCTDNTRSRLDLWRFLKKYREYKKNDEKAPIYWMDFGNAQTTGQVLIGNIRSKISQPASSEYLPMPRMNVITEEVSYSTIREEDSGPSCSLAEALRKQDLFINSMLAQIGCDILWCMFREGRTFYRGAYLNLDTLRVNPIPV | not soluble
